The RNAGym collection of RNA variant scans (doi:10.7554/elife.90254)

B1: LINE1-full (parent)
chain: UACGUAGGUGGUUUUCCCCUGAUAGUGCUAAGGGGGCCUGGAAGUUUGGACUGGGCAGAGCUCAACACAGCGUGGCAAAGUGGCUGUGGCUAGACUGCCUCUCUGGAUUCCUCGUCACUCAGCAGGGCAUCUCUGAGAGAAAUGCC

Variants of: B1
Experiment: self-cleavage, relative activity (ratio to wild type); higher = more cleavage; in vitro, sequencing; the parent is a self-cleaving ribozyme

Row | Variant | self-cleavage
1 | U73C G74U | 1.64
2 | U14C A136C | 1.36
3 | G25C U85C | 0.2
4 | U91C C98A | 0.06
5 | A79G C120A | 1.39
6 | G25U U39C | 0.47
7 | G34U U143G | 1.01
8 | A117U U130C | 1.58
9 | G32A A43G | 1.25
10 | U9C U85C | 0.3
11 | U39G C103A | 1.85
12 | C61G | 0.06
13 | A31C U47A | 1.12
14 | A6G G144A | 1.21
15 | G49A | 1
16 | G53A A141G | 1.26
17 | A64G G125U | 0.33
18 | G80A G127C | 1.6
19 | A124G A142G | 0.72
20 | U87C U91G | 0.08
21 | U115A C133U | 1.04
22 | C17U U39C | 0.92
23 | G80C A121G | 1.18
24 | A141C A142C | 0.71

Row | Variant | self-cleavage
25 | C3A G70A | 0.08
26 | C56U A65G | 0.03
27 | U47G A129G | 1.31
28 | A42U U45A | 0.95
29 | U26C G32C | 0.94
30 | A78G C90U | 0.03
31 | U39C U108C | 1.92
32 | G32C U100C | 2.13
33 | U15G U47A | 1.16
34 | A2G G35A | 1.2
35 | U9C G55U | 0.37
36 | U1G G80A | 0.75
37 | C71A U115A | 0.16
38 | A50C A136C | 2.04
39 | G32U A78G | 0.94
40 | U12A U115C | 1.21
41 | A6G U96A | 0.2
42 | U5C A59G | 0.32
43 | G33A A57G | 0.56
44 | G25A A124G | 0.63
45 | U81C G88A | 0.12
46 | G35A U104C | 1.42
47 | G35A U108C | 1.11
48 | A42G G74A | 0.8

Row | Variant | self-cleavage
49 | C56G A79G | 0.1
50 | C28U | 1.08
51 | A6U U87A | 0.15
52 | U26C U130C | 1.7
53 | U91A A142G | 0.63
54 | U29C C56U | 0.23
55 | C76U G137U | 1.87
56 | A2G U109A | 0.65
57 | A77C | 0.98
58 | G48A G72A | 0.96
59 | A50G A140G | 0.94
60 | A42G U134C | 1.36
61 | G7A G97A | 0.1
62 | U45C G60U | 0.02
63 | U132C C133A | 1.14
64 | U115C G125A | 1.82
65 | G49A A117U | 1.05
66 | U15C A94G | 0.34
67 | G35U U52A | 0.51
68 | U1C G93A | 0.09
69 | U39C C145U | 0.99
70 | A121C G127U | 1.44
71 | U20C A140G | 1.35
72 | C16A A138G | 1.65

Row | Variant | self-cleavage
73 | G82U | 1.52
74 | U13C U108C | 1.37
75 | G4A U115C | 0.9
76 | U15C C16U | 1.02
77 | C17U A65G | 0.18
78 | U115G U143C | 1.86
79 | C19U A117U | 1.28
80 | U85A U108G | 0.12
81 | U104G | 1.19
82 | A92U | 0.66
83 | G126C A129G | 2.02
84 | U62C U104A | 0.05
85 | G33A A77U | 1.47
86 | C19A G32A | 0.91
87 | U46C U109A | 1.41
88 | A24G G54U | 0.68
89 | U46C C120U | 1.57
90 | A77U A140G | 1.37
91 | C76U A142G | 2.37
92 | G114A U143C | 1.02
93 | U62A A117C | 0.05
94 | A6G A50G | 0.77
95 | A77U U112A | 1.1
96 | A59G A117U | 0.08

Row | Variant | self-cleavage
97 | U52A A94G | 0.33
98 | U26C G72A | 0.93
99 | A59G A124U | 0.14
100 | U9C U119C | 1.36
101 | G11A A50C | 1.24
102 | G83A U134C | 1.13
103 | U12A U102A | 1.79
104 | G21A A117U | 1.55
105 | C95A U143C | 0.08
106 | G72A U143A | 1.85
107 | G72A A78G | 1.14
108 | A50U A140U | 0.92
109 | A78G U134G | 1.07
110 | A92G U143A | 0.14
111 | U81C C95U | 0.26
112 | U102C U143C | 1.09
113 | U9A U62C | 0.09
114 | A30U U47G | 0.8
115 | U108A A140G | 1.58
116 | U15C U134C | 1.43
117 | U23A A117G | 2.16
118 | C95A G114A | 0.07
119 | A94C C95U | 0.02
120 | U96A G144A | 0.07

Row | Variant | self-cleavage
121 | A24G U132A | 1.12
122 | G74A U119C | 1.71
123 | A43G A69G | 0.58
124 | U12G A140G | 0.91
125 | A43G C63G | 0.1
126 | U73A U132A | 1.73
127 | G33C A79G | 1.78
128 | A79G C116U | 1.63
129 | A57G A92G | 0.14
130 | U39C A117U | 1.49
131 | A59U A129U | 0.51
132 | G86A A94G | 0.06
133 | G11U C118U | 0.91
134 | C56U U73A | 0.08
135 | G49A G72A | 1.45
136 | A24U G126U | 1.22
137 | C90U U112A | 0.04
138 | A31C A79G | 1.02
139 | U12G C99A | 0.32
140 | G49A A65U | 0.04
141 | G7U U14C | 1.39
142 | U9A A138U | 1.01
143 | A31U G144U | 1.03
144 | G8A U109C | 1.21

Row | Variant | self-cleavage
145 | U109C G135A | 1.71
146 | U13C U14C | 1.13
147 | U1C | 0.86
148 | U1G | 0.87
149 | C61A A129U | 0.03
150 | U1A A50G | 0.75
151 | U87A A124U | 0.08
152 | A69C A142C | 0.13
153 | U20C A77U | 1.02
154 | U85C C118U | 0.1
155 | G33C U119C | 1.8
156 | U52C G126U | 1.31
157 | A129G A141C | 2.06
158 | G80A G86A | 0.05
159 | U100C A117G | 1.49
160 | U46A A117U | 1.46
161 | C56U A57G | 0.04
162 | C63U U100G | 0.35
163 | C111U A121C | 1.54
164 | A79G U109C | 1.26
165 | U96A U102A | 0.1
166 | U5A U45G | 0.71
167 | A43G U47A | 0.96
